Measurements taken from the supplement of paper PMC9112550, “Optimization of the antimicrobial peptide Bac7 by deep mutational scanning” (BMC Biology, 2022).

System: Escherichia coli TOP10
Test: shrunken log2 fold change of peptide-encoding DNA abundance (4.5 h post-induction vs induction); higher = less antimicrobial activity (less host growth inhibition)
Settings: time post-induction: 4.5 h; library: site-saturation at positions 5, 18, 19, 20
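Note: peptides expressed intracellularly from a pBAD plasmid library in pooled LB shake-flask culture, induced with 0.3% L-arabinose, DNA abundance read by NGS, three biological replicates, DESeq2 with apeglm shrinkage.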

Sequence | shrunken log2 fold change
RRIRSRPPRLPRPRPRPPAHPRP | 0.303
RRIRSRPPRLPRPRPRPPASPRP | 0.694
RRIRSRPPRLPRPRPRPPCSPRP | 0.198
RRIRSRPPRLPRPRPRPPGKPRP | -0.0498
RRIRSRPPRLPRPRPRPPGQPRP | 0.4
RRIRSRPPRLPRPRPRPPGVPRP | 0.293
RRIRSRPPRLPRPRPRPPHNPRP | -0.0338
RRIRSRPPRLPRPRPRPPIKPRP | -0.221
RRIRSRPPRLPRPRPRPPILPRP | 0.0371
RRIRSRPPRLPRPRPRPPKIPRP | -0.0117
RRIRSRPPRLPRPRPRPPKQPRP | -0.215
RRIRSRPPRLPRPRPRPPKVPRP | -0.211
RRIRSRPPRLPRPRPRPPLGPRP | 0.399
RRIRSRPPRLPRPRPRPPLMPRP | 0.129
RRIRSRPPRLPRPRPRPPMEPRP | -0.117
RRIRSRPPRLPRPRPRPPMYPRP | -0.549
RRIRSRPPRLPRPRPRPPNLPRP | -0.148
RRIRSRPPRLPRPRPRPPQFPRP | -0.103
RRIRSRPPRLPRPRPRPPQKPRP | 0.463
RRIRSRPPRLPRPRPRPPQQPRP | 0.38
RRIRSRPPRLPRPRPRPPRYPRP | -0.0232
RRIRSRPPRLPRPRPRPPVDPRP | 0.327
RRIRSRPPRLPRPRPRPPVLPRP | 0.0563
RRIRSRPPRLPRPRPRPPVVPRP | 0.473
RRIRSRPPRLPRPRPRPPYEPRP | 0.0519

Sequence | shrunken log2 fold change
RRIRSRPPRLPRPRPRPPYLPRP | -0.45
RRIRSRPPRLPRPRPRPQAIPRP | 0.0296
RRIRSRPPRLPRPRPRPQAPPRP | 0.142
RRIRSRPPRLPRPRPRPQCHPRP | -0.113
RRIRSRPPRLPRPRPRPQCVPRP | -0.204
RRIRSRPPRLPRPRPRPQDDPRP | -0.351
RRIRSRPPRLPRPRPRPQDLPRP | -0.0949
RRIRSRPPRLPRPRPRPQEEPRP | -0.0262
RRIRSRPPRLPRPRPRPQEGPRP | -0.0317
RRIRSRPPRLPRPRPRPQEIPRP | -0.16
RRIRSRPPRLPRPRPRPQFFPRP | -0.158
RRIRSRPPRLPRPRPRPQGEPRP | -0.0953
RRIRSRPPRLPRPRPRPQGFPRP | -0.0809
RRIRSRPPRLPRPRPRPQHCPRP | -0.0942
RRIRSRPPRLPRPRPRPQHEPRP | -0.296
RRIRSRPPRLPRPRPRPQLQPRP | 0.104
RRIRSRPPRLPRPRPRPQMIPRP | -0.292
RRIRSRPPRLPRPRPRPQNLPRP | -0.394
RRIRSRPPRLPRPRPRPQPQPRP | 0.47
RRIRSRPPRLPRPRPRPQPTPRP | 0.447
RRIRSRPPRLPRPRPRPQQQPRP | -0.0954
RRIRSRPPRLPRPRPRPQQYPRP | -0.525
RRIRSRPPRLPRPRPRPQRFPRP | -0.152
RRIRSRPPRLPRPRPRPQRQPRP | 0.116
RRIRSRPPRLPRPRPRPQSPPRP | -0.0599

Sequence | shrunken log2 fold change
RRIRSRPPRLPRPRPRPQTAPRP | 0.0464
RRIRSRPPRLPRPRPRPQVAPRP | 0.0589
RRIRSRPPRLPRPRPRPQVKPRP | -0.146
RRIRSRPPRLPRPRPRPQVLPRP | -0.0779
RRIRSRPPRLPRPRPRPQWCPRP | 0.111
RRIRSRPPRLPRPRPRPQWFPRP | -0.241
RRIRSRPPRLPRPRPRPQWKPRP | -0.0984
RRIRSRPPRLPRPRPRPQWNPRP | -0.259
RRIRSRPPRLPRPRPRPQYKPRP | -0.464
RRIRSRPPRLPRPRPRPRCGPRP | 0.34
RRIRSRPPRLPRPRPRPRDTPRP | 0.0657
RRIRSRPPRLPRPRPRPRFGPRP | 0.342
RRIRSRPPRLPRPRPRPRGDPRP | 0.477
RRIRSRPPRLPRPRPRPRGQPRP | 0.197
RRIRSRPPRLPRPRPRPRGSPRP | 0.378
RRIRSRPPRLPRPRPRPRHFPRP | 0.141
RRIRSRPPRLPRPRPRPRHMPRP | -0.0166
RRIRSRPPRLPRPRPRPRHPPRP | 0.215
RRIRSRPPRLPRPRPRPRIIPRP | -0.712
RRIRSRPPRLPRPRPRPRISPRP | 0.0353
RRIRSRPPRLPRPRPRPRKRPRP | 0.213
RRIRSRPPRLPRPRPRPRKSPRP | 0.139
RRIRSRPPRLPRPRPRPRLEPRP | 0.596
RRIRSRPPRLPRPRPRPRMDPRP | -0.291
RRIRSRPPRLPRPRPRPRMHPRP | 0.173
